Five molecules from patent US20250263441A1 (Metanovas Biotech Inc., priority 2024, published 2025) can be followed below.

Type in all cases: cell-based
For series [1], the system named is Mouse macrophage RAW264.7 cells. Briefly: IL-6 and IL-1β protein concentration in LPS-stimulated RAW264.7 cells (ELISA). The conditions noted are these: Dexamethasone positive control; LPS 10 ng/ml, 24 hours; repeated experiments. As for the experimental part:
(§1) (1) Mouse macrophage RAW264.7 cells were cultured in DMEM supplemented with 10% fetal bovine serum (FBS) and 1% penicillin and streptomycin (P/S) at 37° C. in a 5% CO2 incubator.
(§2) (2) 5×10^4 mouse-derived RAW264.7 macrophages were placed in 12-well cell culture plates and cultured for 24 hours. Then, 20 μL of PBS (negative control), Dexamethasone (positive control), and the test peptide were added to the wells for incubation for 2 hours. Afterward, 10 ng/ml of lipopolysaccharide (LPS) was mixed with RAW264.7 cells and incubated for 24 hours.
(§3) (3) The supernatant was collected, and NO and IL-6/IL-1ß expression levels were measured using a commercial kit.
2. After treating RAW264.7 cells with peptide AMP-33, an ELISA kit was used to detect the concentration of IL-6 and IL-1β proteins.
(In an ELISA, binding on a coated surface is turned into a signal by an enzyme label.)

The test system is the same in series [2]. The experiment in a line: NO concentration after treatment of LPS-stimulated RAW264.7 cells. The conditions noted are these: Dexamethasone positive control; LPS 10 ng/ml, 24 hours; replicate experiments. As for the experimental part: as §1, §2, §3
In another series the test system is Escherichia coli. Briefly: Minimum inhibitory concentration on Escherichia coli (liquid culture). The conditions noted are these: for Minimum inhibitory concentration on Escherichia coli: 37° C., 24 to 48 hours. As for the experimental part: (§4) Primary screening of liquid culture: the peptides in Examples 1 to 2 were dissolved in pure water to a concentration of 100 μg/mL. Using a micropipette, 10 μL of the peptides were added to a new 96-well plate in order from left to right, starting from the second compartment. Positive and negative controls were established for use. The 96-well plates were arranged vertically, and the peptide concentrations in the control groups were the same as those of the antimicrobial peptides. The control groups included: pure water and bacteria, antimicrobial peptide FK13 and bacteria, antimicrobial peptide HPA3NT3 and bacteria, and ciprofloxacin and bacteria. An aseptic medium was used.
(§5) If a 96-deep-well plate was used to culture bacteria, an additional 100 μL of sterile medium was added to all wells.
E. coli was inoculated in LB medium with normal oxygen concentration (21%) for 48 hours. E. coli clones were picked and incubated in LB medium at 37° C. with normal oxygen concentration (21%) for an additional 48 hours. The bacterial concentration was measured and diluted to 107 CFU/mL with culture medium for use.
(§6) The prepared fresh bacterial suspension was diluted to 105 CFU/mL and added to the 96-well plate with 90 μL of the bacterial suspension per well. The plate was incubated at 37° C. with a normal oxygen concentration for 24 to 48 hours (Propionibacterium acnes was cultured anaerobically at 37° C. for 24 to 48 hours in an anaerobic bag). The absorbance at 630 nm was measured using a microplate reader, and the degree of turbidity was observed by the naked eye.
(§7) (iv) Repetition of Operations: The Operations in (iii) were Repeated Twice, and the Decision to Perform a Third Repetition was Based on the Reproducibility of the Experiment.

Another series has as its system Propionibacterium acnes. The experiment in a line: Minimum inhibitory concentration on Propionibacterium acnes (liquid culture). The conditions noted are these: for Minimum inhibitory concentration on Propionibacterium acnes: anaerobic, 37° C., 24 to 48 hours. How it is done: as §4, §5
Propionibacterium acnes was inoculated on an anaerobic blood agar plate, placed in an anaerobic bag, and incubated anaerobically at 37° C. for 48 hours. Propionibacterium acnes clones were then picked and incubated anaerobically in liquid anaerobic broth medium at 37° C. for an additional 48 hours. The bacterial concentration was measured and diluted to 107 CFU/mL with culture medium.
as §6, §7

The test system of a further series is Staphylococcus aureus. The experiment in a line: Minimum inhibitory concentration on Staphylococcus aureus (liquid culture). The conditions noted are these: for Minimum inhibitory concentration on Staphylococcus aureus: 37° C., 24 to 48 hours. As for the experimental part:
as §4, §5
Staphylococcus aureus was inoculated in LB medium with a normal oxygen concentration (21%) for 48 hours. Staphylococcus aureus clones were picked and incubated in LB medium at 37° C. with a normal oxygen concentration (21%) for an additional 48 hours. The bacterial concentration was measured and diluted to 107 CFU/mL with culture medium for use.
as §6, §7

Series [3] deals with rabbit blood erythrocytes. The experiment in a line: Measurement of hemolytic concentration. The conditions noted are these: for Hemolysis rate: 37° C., 1 hour, replicate wells; for Minimum hemolytic concentration: rabbit erythrocytes. How it is done:
4 mL of 2% rabbit blood erythrocytes were washed twice with 4 mL PBS and centrifuged at 3000 rpm for 5 minutes. The supernatant was discarded, and the rabbit blood erythrocytes were resuspended in 4 mL PBS. 160 μg of the peptides from Examples 1 to 2, FK13, and HPA3NT3 were independently dissolved in 1 mL PBS buffer to prepare the peptide mother solutions with a concentration of 160 μg/mL. Subsequently, the peptide mother solutions were diluted with PBS buffer to concentrations of 80 μg/mL, 64 μg/mL, 32 μg/mL, 16 μg/mL, and 8 μg/mL. 100 μL of the 2% rabbit blood erythrocytes and 100 μL of different concentrations of peptides (80 μg/mL, 64 μg/mL, 32 μg/mL, 16 μg/mL, 8 μg/mL) were added to each well of a 96-well plate. In the negative control, 100 μL of PBS buffer was added, while in the positive control, 100 μL of 0.1% (w/v) Triton X-100 was added. Three replicate wells were set up for each group and incubated at 37° C. for 1 hour. The 96-well plate was then removed, centrifuged at 3000 rpm for 5 minutes, and 100 μL of supernatant was aspirated and transferred to a new 96-well plate. The absorbance was measured at 540 nm using an enzyme meter. Hemolysis rate (%)=((Absorbancesample−Absorbancenegative)/(Absorbancepositive−Absorbancenegative))*100%.

Series [4] concerns HaCat (human immortalized epidermal cells) cells. The experiment in a line: Cytotoxic assay (CCK-8) in HaCat cells. The conditions noted are these: 60 hours. As for the experimental part:
Preparation of Cell Suspension: HaCat (human immortalized epidermal cells) cells were counted and inoculated into 96-well plates. 100 μL of cell suspension was added to each well, corresponding to a density of 5×10^4 cells per well, with three replicates for each sample. The cells were cultured in a 37° C. incubator for 4 hours until they were attached to the plate. Peptides from the examples, as well as FK13 and HPA3NT3, were then added at concentrations of 80 μg/mL, 32 μg/mL, and 8 μg/mL. The cells were incubated at 37° C. for 60 hours. Afterward, 10 μL of CCK-8 solution was added, and the cells were cultured for an additional 2 hours. The absorbance of the peptides at 450 nm was measured using a dual-wavelength detector, with a detection wavelength of 450-490 nm and a reference wavelength of 600-650 nm.

The next series concerns Candida albicans. The experiment in a line: Minimum inhibitory concentration on Candida albicans (liquid culture). The conditions noted are these: 37° C., 24 to 48 hours. How it is done: Primary screening of liquid culture: the peptides in Examples 1 to 2 were dissolved in pure water to a concentration of 100 μg/mL. Using a micropipette, 10 μL of the peptides were added to a new 96-well plate in order from left to right, starting from the second compartment. Positive and negative controls were established for use. The 96-well plates were arranged vertically, and the peptide concentrations of the control groups were the same as those of the antimicrobial peptide. The control groups consisted of: pure water and bacteria, antimicrobial peptide FK13 and bacteria, and antimicrobial peptide HPA3NT3 and bacteria. An aseptic medium was used. The amino acid sequence of FK13 is […] (SEQ ID NO: 5), and the amino acid sequence of HPA3NT3 is […] (SEQ ID NO: 6).
as §5
Candida albicans was inoculated in LB medium with normal oxygen concentration (21%) for 48 hours. […] clones were picked and incubated in LB medium at 37° C. with normal oxygen concentration (21%) for 48 hours. The bacterial concentration was measured and diluted to 107 CFU/mL with culture medium for use.
The prepared fresh bacterial suspension was diluted to 105 CFU/mL and added to the 96-well plate with 90 μL of the bacterial suspension per well, and incubated at 37° C. with normal oxygen concentration for 24 to 48 hours. The absorbance at 630 nm was measured with a microplate reader, and the degree of turbidity was observed by the naked eye.
as §7

Values after ≈ are worked out from the molar mass of the structure shown. Values joined by “and” are separate entries in the source; they are usually repeats but may differ in a detail not shown here. Identical values can stand only once.

In the case of `C[C@@H]1C[C@H]2[C@@H]3CCC4=CC(=O)C=C[C@]4(C)[C@@]3(F)[C@@H](O)C[C@]2(C)[C@@]1(O)C(=O)CO` [Dexamethasone, reference compound], in series [1], the IL-1β protein concentration was 75.1 pg/mL and 44 pg/mL; the IL-6 protein concentration was 14.2 pg/mL and 23.9 pg/mL. Also, the NO concentration in series [2] is 6.80 µM and 6.06 µM and 3.43 µM.
`O=C(O)c1cn(C2CC2)c2cc(N3CCNCC3)c(F)cc2c1=O` [ciprofloxacin]: the MIC worked out at 0.25 µg/mL (≈ 0.754 µM) with Escherichia coli (Escherichia coli, read-out: Minimum inhibitory concentration on Escherichia coli); 0.25 µg/mL (≈ 0.754 µM) with Propionibacterium acnes (Cutibacterium acnes, read-out: Minimum inhibitory concentration on Propionibacterium acnes); 0.25 µg/mL (≈ 0.754 µM) in the series with Staphylococcus aureus (Staphylococcus aureus, read-out: Minimum inhibitory concentration on Staphylococcus aureus).
On to “Example 1: GIFKKITGKLFKWIK (designated as AMP5)”, for which the “Minimum inhibitory concentration on Escherichia coli” value in the series on Escherichia coli came to 50 µg/mL. Further, the Hemolysis rate in series [3] (8 μg/mL) was 14.6% and −0.9% and 2.8%; in series [3] (16 μg/mL), 5.9% and 1.8% and 80.0%; in series [3] (32 μg/mL), 62% and 2.8% and −1.9%; in series [3] (64 μg/mL), 3.7% and −1.0% and 3.8%; in series [3] (80 μg/mL), 14.6% and −0.9% and 2.8%. Further, in series [3], the Minimum hemolytic concentration was found to be 3.7 µg/mL. For the same molecule, the “Minimum inhibitory concentration on Propionibacterium acnes” value in the series on Propionibacterium acnes was determined as 8 µg/mL. In series [4], this molecule returned a Maximum cytotoxicity-free concentration of 80 µg/mL. Further, the “Minimum inhibitory concentration on Staphylococcus aureus” value in the series on Staphylococcus aureus stood at 50 µg/mL. For the same molecule, the “Minimum inhibitory concentration on Candida albicans” value in the series with Candida albicans came to 25 µg/mL.
With “FK13: antimicrobial peptide FK13, FPLTWLKWWKWKKK [reference compound]”, the “Minimum inhibitory concentration on Escherichia coli” value with Escherichia coli amounted to 50 µg/mL. The Hemolysis rate was 3.9% and 7.2% and 5.9% in series [3] (8 μg/mL); 3.4% and 2.5% and 0.4% in series [3] (16 μg/mL); 2.5% and 3.1% and 5.0% in series [3] (32 μg/mL); 5.3% and 2.5% and 2.7% in series [3] (64 μg/mL); 27.0% and 21.5% and 27.4% in series [3] (80 μg/mL). The molecule also showed a Minimum hemolytic concentration in series [3] of 64.0 µg/mL. The “Minimum inhibitory concentration on Propionibacterium acnes” value in the series on Propionibacterium acnes turned out to be 4 µg/mL. In addition, the Maximum cytotoxicity-free concentration in series [4] is 80 µg/mL. Also, the “Minimum inhibitory concentration on Staphylococcus aureus” value in the series with Staphylococcus aureus amounted to 4 µg/mL. Also, the “Minimum inhibitory concentration on Candida albicans” value in the series with Candida albicans came out at 25 µg/mL.
For “HPA3NT3: antimicrobial peptide HPA3NT3, FKRLKKLFKKKKIWNWK [reference compound]”, the “Minimum inhibitory concentration on Escherichia coli” value in the series on Escherichia coli turned out to be 25 µg/mL. Further, the Hemolysis rate is 2.4% and 6.2% and 4.7% in series [3] (8 μg/mL); 23% and −0.2% and 0.4% in series [3] (16 μg/mL); 2.7% and 1.4% and 7.8% in series [3] (32 μg/mL); 21.4% and −0.8% and 0.6% in series [3] (64 μg/mL); 9.7% and 8.5% and 13.7% in series [3] (80 μg/mL). This molecule gave a Minimum hemolytic concentration in series [3] of 64.0 µg/mL. The “Minimum inhibitory concentration on Propionibacterium acnes” value in the series with Propionibacterium acnes turned out to be 2 µg/mL. In addition, in series [4], the Maximum cytotoxicity-free concentration was 32 µg/mL. Further, in the series with Staphylococcus aureus, the “Minimum inhibitory concentration on Staphylococcus aureus” value amounted to 4 µg/mL. Further, the “Minimum inhibitory concentration on Candida albicans” value with Candida albicans was 50 µg/mL.
